The target of assay [1] is His-tagged recombinant human SMN protein (ProteinTech, catalog # ag14333) (human) (UniProt Q16637). Kind of assay: Erenna sandwich assay, capture MABE230 12.5 µg/mg MPs; Det Ab 500 ng/mL; SMN 0.23 pg/mL.
Assay [2] has the same target. The experiment in a line: Erenna sandwich assay, capture MABE230 12.5 µg/mg MPs; Det Ab 500 ng/mL; SMN 0.93 pg/mL.
The target is the same in assay [3]. The experiment in a line: Erenna sandwich assay, capture MABE230 12.5 µg/mg MPs; Det Ab 1000 ng/mL; SMN 0.23 pg/mL.
Assay [4] has the same target. The experiment in a line: Erenna sandwich assay, capture MABE230 12.5 µg/mg MPs; Det Ab 1000 ng/mL; SMN 7.41 pg/mL.
In assay [5] the target is endogenous SMN protein in human CSF (human) (UniProt Q16637). Kind of assay: Erenna sandwich assay, capture MABE230; human CSF sample 4, unspiked (endogenous SMN only).
The target in assay [6] is His-tagged recombinant human SMN protein (ProteinTech, catalog # ag14333) (human) (UniProt Q16637). Kind of assay: Erenna sandwich assay, capture MABE230; SMN 2 pg/mL, MPs 10 µg/well, Det Ab 50 ng/mL, Cap Ab/MP 25 µg/mg.
Assay [7] has the same target. The experiment in a line: Erenna sandwich assay, capture MABE230; SMN 2 pg/mL, MPs 5 µg/well, Det Ab 500 ng/mL, Cap Ab/MP 25 µg/mg.
Assay [8] has the same target. Kind of assay: Erenna sandwich assay, capture MABE230; SMN 2 pg/mL, MPs 10 µg/well, Det Ab 500 ng/mL, Cap Ab/MP 12.5 µg/mg.
For assay [9] the target is unchanged. The experiment in a line: Erenna sandwich assay, capture MABE230; human CSF sample 3 spiked with recombinant SMN 5.0 pg/mL (endogenous SMN also present).
The target is the same in assay [10]. Kind of assay: Erenna sandwich assay, capture MABE230; human CSF sample 5 spiked with recombinant SMN 5.0 pg/mL (endogenous SMN also present).
For assay [11] the target is unchanged. The experiment in a line: Erenna sandwich assay, capture MABE230; human CSF sample 4 spiked with recombinant SMN 10.0 pg/mL (endogenous SMN also present).

Regarding “ProteinTech anti-SMN2 (catalog #60154-1-Ig) (antibody)”, the detected events (DE) (detected events) in assay [1] was found to be 301; in assay [2], 967; in [3], 330; in assay [4] it was 7200; in [5], 375; in [6], 776. Also, the detected events (DE) (detected events) came to 1930 in assay [7]; 2120 in assay [8]; 5980 in assay [9]; 6070 in [10]; 8660 in assay [11]. Also, the event photons (EP) (event photons) in assay [1] is 40000; in assay [2], 135000; in assay [3], 44800; in [4], 1.32e+06.
